Assay results published in US20210017279A1 (NANJING LEGEND BIOTECH, published 2021).
“And” between values parts separate entries of the source, which are not always exact repeats. Equal values may be shown once. Read-outs that look alike come from different tables or passages of the source.

T1: LAG-3-Fc (human, UniProt P18627 29-450, biotinylated (in the blocking assays))
T1 construct: Recombinant LAG-3-Fc (Acrobiosystems / R&D Systems); also called biotinylated LAG-3-Fc protein; not shown: Fc part
T1 sequence: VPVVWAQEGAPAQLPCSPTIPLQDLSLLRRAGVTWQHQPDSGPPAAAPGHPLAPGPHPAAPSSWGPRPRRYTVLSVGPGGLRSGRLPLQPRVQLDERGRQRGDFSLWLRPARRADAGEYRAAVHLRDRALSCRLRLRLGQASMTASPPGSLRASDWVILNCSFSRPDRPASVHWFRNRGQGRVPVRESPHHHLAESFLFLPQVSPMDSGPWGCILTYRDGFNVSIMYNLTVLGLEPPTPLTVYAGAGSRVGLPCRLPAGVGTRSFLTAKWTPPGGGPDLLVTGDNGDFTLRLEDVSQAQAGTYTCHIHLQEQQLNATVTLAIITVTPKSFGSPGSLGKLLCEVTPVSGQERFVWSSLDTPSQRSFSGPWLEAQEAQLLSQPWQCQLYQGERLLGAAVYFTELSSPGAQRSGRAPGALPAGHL

T2: human LAG-3 expressed on CHO-K1 cells (human, UniProt P18627 29-525)
T2 construct: also called CHO-huLAG-3 cells; LAG-3 expressed on CHO cells
T2 sequence: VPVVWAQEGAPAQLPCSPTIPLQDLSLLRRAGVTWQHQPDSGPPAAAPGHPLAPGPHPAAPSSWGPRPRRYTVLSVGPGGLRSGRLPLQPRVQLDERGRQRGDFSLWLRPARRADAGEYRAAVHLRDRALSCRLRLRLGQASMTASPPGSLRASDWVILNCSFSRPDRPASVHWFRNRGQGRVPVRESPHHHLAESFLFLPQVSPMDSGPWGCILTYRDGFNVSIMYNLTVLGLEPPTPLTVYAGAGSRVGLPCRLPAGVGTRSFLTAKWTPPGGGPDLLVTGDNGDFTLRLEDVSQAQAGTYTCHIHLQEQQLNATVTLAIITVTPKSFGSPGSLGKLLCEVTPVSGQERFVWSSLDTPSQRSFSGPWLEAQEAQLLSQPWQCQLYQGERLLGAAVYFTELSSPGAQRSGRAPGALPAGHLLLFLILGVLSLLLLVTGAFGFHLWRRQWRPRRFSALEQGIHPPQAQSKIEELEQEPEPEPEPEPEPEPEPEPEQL

T3: Human LAG-3-His (human, UniProt P18627 29-450)
T3 construct: Bought recombinant protein; also called Human LAG-3 protein (Acrobiosystem, 772-6BGF2-D5); not shown: His tag
T3 sequence: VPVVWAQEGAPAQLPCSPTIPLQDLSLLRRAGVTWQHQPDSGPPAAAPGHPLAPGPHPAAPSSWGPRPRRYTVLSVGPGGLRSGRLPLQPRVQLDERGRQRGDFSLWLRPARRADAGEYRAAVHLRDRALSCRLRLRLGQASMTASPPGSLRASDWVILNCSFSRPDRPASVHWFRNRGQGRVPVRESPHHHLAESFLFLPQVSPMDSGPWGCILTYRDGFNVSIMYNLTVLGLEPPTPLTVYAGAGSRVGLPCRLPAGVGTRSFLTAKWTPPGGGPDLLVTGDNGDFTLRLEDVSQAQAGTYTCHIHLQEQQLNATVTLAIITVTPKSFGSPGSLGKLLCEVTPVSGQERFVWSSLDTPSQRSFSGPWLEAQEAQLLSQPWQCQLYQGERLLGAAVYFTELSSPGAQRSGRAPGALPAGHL


What was measured:
[1] = target: LAG-3 on Thaw-and-Use LAG-3 Effector cells; assay: cell-based or functional assay
[2] = target: T4, cynomolgus LAG-3 expressed on CHO-K1 cells (cynomolgus); assay: flow cytometry on CHO-K1 cells expressing cynomolgus LAG-3
T4 construct: whole, on cells
Protocol: (§1) To determine cell binding EC₅₀, CHO-K1 cells expressing human or cynomolgus LAG-3 were harvested and incubated with anti-LAG-3 sdAb-Fc fusion proteins at gradient concentrations, followed by fluorophore-labeled secondary antibodies against human Fc. […] The samples were then analyzed with flow cytometry. The binding and blocking curves were shown in FIG. 4 and FIG. 5, respectively.

[3] = target: LAG-3 on Thaw-and-Use LAG-3 Effector cells; assay: cell-based or functional assay; remark: listed apart in the source
[4] = target: T5, Cynomolgus LAG-3-Fc (cynomolgus); assay: SPR (Biacore T200); cynomolgus LAG-3 immobilized, antibody injected
T5 construct: Bought recombinant protein; also called cynomolgus LAG-3 protein (Acrobiosystem, 2187-71HF1-DZ)
Text: BIACORE™ T200 instrument was utilized to determine affinity constant (KD) of each anti-LAG-3 antibody (sdAb-Fc fusion protein or mAb format) by SPR. Briefly, for measuring the affinity against human LAG-3, anti-LAG-3 antibody was immobilized on the sensor chip through capture antibody (Jackson ImmunoResearch Cat.No.115-005-071) at an appropriate density. […] The data of dissociation rate constant (koff) and association rate constant (k₀n) were obtained using BIACORE™ T200 evaluation software and the affinity constant (KD) were calculated from the ratio of koff to kₒₙ.

[5] = target: T5, Cynomolgus LAG-3-Fc; assay: SPR (Biacore T200); antibody captured on chip, LAG-3 injected
Protocol: BIACORE™ T200 instrument was utilized to determine the affinity constant (KD) of each anti-LAG-3 antibody (sdAb-Fc fusion protein or mAb format) by SPR. Briefly, anti-LAG-3 antibody was immobilized on the sensor chip through capture antibody (Jackson ImmunoResearch Cat. No.115-005-071) at an appropriate density. […] The data of dissociation rate constant (koff) and association rate constant (kₘ) were obtained using BIACORE™ T200 evaluation software and the affinity constant (KD) were calculated from the ratio of koff to kₘ.

[6] = target: T6, PD-1 expressed on CHO cells (UniProt Q15116 25-288, limits assumed); assay: flow cytometry on CHO cells expressing PD-1; Experiment 2
T6 construct: whole, on cells; also called CHO-PD-1 cells
T6 sequence (Q15116 25-288 limits assumed): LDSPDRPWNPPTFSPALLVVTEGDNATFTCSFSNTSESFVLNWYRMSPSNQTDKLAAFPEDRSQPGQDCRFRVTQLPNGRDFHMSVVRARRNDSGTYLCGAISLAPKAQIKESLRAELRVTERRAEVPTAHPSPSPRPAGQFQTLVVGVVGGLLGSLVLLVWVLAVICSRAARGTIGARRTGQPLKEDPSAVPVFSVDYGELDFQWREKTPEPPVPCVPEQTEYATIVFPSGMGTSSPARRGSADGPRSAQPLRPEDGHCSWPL

[7] = target: T6, PD-1 expressed on CHO cells; assay: flow cytometry competition; blocks PD-L1 binding to CHO-PD-1 cells; Experiment 2
[8] = target: PD-1 in the PD-1 cell based reporter assay; assay: cell-based or functional assay
[9] = target: T1, LAG-3-Fc; assay: flow cytometry competition; blocks LAG-3-Fc binding to MHC II on A375 cells; Experiment 2
[10] = target: T2, human LAG-3 expressed on CHO-K1 cells; assay: flow cytometry on CHO cells expressing LAG-3; Experiment 2
Protocol: as §1

[11] = target: Human PD-1 (human, UniProt Q15116 25-167, limits assumed); assay: SPR (Biacore T200), as in Example 3; Experiment 2
Human PD-1, sequence (Q15116 25-167 limits assumed): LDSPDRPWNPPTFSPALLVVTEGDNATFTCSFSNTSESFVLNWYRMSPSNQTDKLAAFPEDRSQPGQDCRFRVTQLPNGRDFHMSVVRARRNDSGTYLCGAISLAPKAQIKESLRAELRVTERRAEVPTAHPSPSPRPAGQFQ

[12] = target: T3, Human LAG-3-His; assay: SPR (Biacore T200), as in Example 3; Experiment 2

Row | Binder | LAG-3 blockade reporter assay EC50 [1] | EC50 [2] | LAG-3 blockade reporter assay EC50 [3] | LAG-3 blockade reporter assay Signal span (% activation) [3] | Kd [4] | Kd [5] | EC50 [6] | EC50 [7] | PD-1 cell based reporter assay EC50 [8] | EC50 [9] | EC50 [10] | Kd [11] | Kd [12]
1 | BLP-19 (bispecific antibody, human IgG4 S228P, kappa, also called PD-1 x LAG-3 BABP) heavy: not shown light: EVQLVESGGGLVQPGGSLRLSCAASGYTYGGYCMGWFRQAPGKGLEGVSTINSDGSTNYADSVKGRFTISRDNSKNTLYLQMNSLRAEDTAVYYCAVDLAPCWVAGPIEAADFGYWGQGTLVTVSSEPKSSDKTHTSPPSPDIQMTQSPSSVSASVGDRVTITCKASQDVDTAVAWYQQKPGKAPKLLIYWASTRHTGVPSRFSGSGSGTDFTLTISSLQPEDFATYYCQQYSTFPWTFGGGTKVEIKRTVAAPSVFIFPPSDEQLKSGTASVVCLLNNFYPREAKVQWKVDNALQSGNSQESVTEQDSKDSTYSLSSTLTLSKADYEKHKVYACEVTHQGLSSPVTKSFNRGEC | 1.57 nM |  |  |  |  |  | 14.6 nM | 21 nM | 3.65 nM | 44.6 nM | 13.5 nM | 4 nM | 1.4 nM
2 | BLP-34 (bispecific antibody, human IgG4 S228P, kappa, also called PD-1 x LAG-3 BABP) heavy: not shown light: EPKSSDKTHTSPPSPEVQLVESGGGLVQPGGSLRLSCAASGYIISSYCMGWFRQAPGKGLEGVAAIDSDGGTSYADSVKGRFTISKDNSKNTLYLQMNSLRAEDTAMYYCAADFCWVDEDRHLYEYNSWGQGTLVTVSSDIQMTQSPSSVSASVGDRVTITCKASQDVDTAVAWYQQKPGKAPKLLIYWASTRHTGVPSRFSGSGSGTDFTLTISSLQPEDFATYYCQQYSTFPWTFGGGTKVEIKRTVAAPSVFIFPPSDEQLKSGTASVVCLLNNFYPREAKVQWKVDNALQSGNSQESVTEQDSKDSTYSLSSTLTLSKADYEKHKVYACEVTHQGLSSPVTKSFNRGEC | 15.8 nM |  |  |  |  |  | 12.5 nM | 13.8 nM | 2.77 nM | 37.1 nM | 3.12 nM | 3.1 nM | 3.7 nM

Other lines, results leading:

Row | LAG-3 blockade reporter assay EC50 [1] | EC50 [2] | LAG-3 blockade reporter assay EC50 [3] | LAG-3 blockade reporter assay Signal span (% activation) [3] | Kd [4] | Kd [5] | EC50 [6] | EC50 [7] | PD-1 cell based reporter assay EC50 [8] | EC50 [9] | EC50 [10] | Kd [11] | Kd [12] | Binder
3 | 3.29 nM and 3.82 nM | 17.6 nM | 3.82 nM | 76.8 % activation | 1000 nM | 1.7 nM |  |  |  |  |  |  |  | BMS-986016 (antibody, human IgG4 S228P, kappa, V domains shown, also called benchmark antibody; positive control anti-LAG-3 monoclonal antibody (Bristol-Myers Squibb)) VH: QVQLQQWGAGLLKPSETLSLTCAVYGGSFSDYYWNWIRQPPGKGLEWIGEINHRGSTNSNPSLKSRVTLSLDTSKNQFSLKLRSVTAADTAVYYCAFGYSDYEYNWFDPWGQGTLVTVSS VL: EIVLTQSPATLSLSPGERATLSCRASQSISSYLAWYQQKPGQAPRLLIYDASNRATGIPARFSGSGSGTDFTLTISSLEPEDFAVYYCQQRSNWPLTFGQGTNLEIKR
4 |  |  |  |  |  |  |  |  | 1.15 nM |  |  |  |  | Pembrolizumab (antibody, human IgG4 S228P, kappa, V domains shown) VH: QVQLVQSGVEVKKPGASVKVSCKASGYTFTNYYMYWVRQAPGQGLEWMGGINPSNGGTNFNEKFKNRVTLTTDSSTTTAYMELKSLQFDDTAVYYCARRDYRFDMGFDYWGQGTTVTVSS VL: EIVLTQSPATLSLSPGERATLSCRASKGVSTSGYSYLHWYQQKPGQAPRLLIYLASYLESGVPARFSGSGSGTDFTLTISSLEPEDFAVYYCQHSRDLPLTFGGGTKVEIKR
5 | 3.83 nM |  |  |  |  |  | 8.51 nM | 12.4 nM | 1.25 nM |  |  | 2.5 nM |  | BLP-38 (bispecific antibody, human IgG4 S228P, kappa, also called PD-1 x LAG-3 BABP) heavy: not shown light: EPKSSDKTHTSPPSPEVQLVESGGGLVQPGGSLRLSCAASGYTVSSYCMGWFRQAPGKGREGVSAIDSDGSVSYADSVKGRFTISKDNSKNTLYLQMNSLRAEDTAVYFCAADLCWVDQDQGEYNTWGQGTLVTVSSDIQMTQSPSSVSASVGDRVTITCKASQDVDTAVAWYQQKPGKAPKLLIYWASTRHTGVPSRFSGSGSGTDFTLTISSLQPEDFATYYCQQYSTFPWTFGGGTKVEIKRTVAAPSVFIFPPSDEQLKSGTASVVCLLNNFYPREAKVQWKVDNALQSGNSQESVTEQDSKDSTYSLSSTLTLSKADYEKHKVYACEVTHQGLSSPVTKSFNRGEC
